Our source for the stoichiometry N values is publication PMC7405475.

The target of the assay is His6-maltose binding protein-SARS-CoV-2 N3 (spacer B/N3 region, residues 365-419) (SARS-CoV-2) (UniProt P0DTC9). Briefly: SEC-MALS. (Size exclusion chromatography separates by hydrodynamic size, large species first.)

In the case of “His6-maltose binding protein-SARS-CoV-2 N3 (spacer B/N3 region, residues 365-419) (from UniProt P0DTC9 365-419) (domain or fragment)”, the stoichiometry N (usually the number of molecules, sites or subunits per partner or assembly) is 2.
